In experiment [1] the target is T1, porcine GPCR142 (porcine).
T1 chain: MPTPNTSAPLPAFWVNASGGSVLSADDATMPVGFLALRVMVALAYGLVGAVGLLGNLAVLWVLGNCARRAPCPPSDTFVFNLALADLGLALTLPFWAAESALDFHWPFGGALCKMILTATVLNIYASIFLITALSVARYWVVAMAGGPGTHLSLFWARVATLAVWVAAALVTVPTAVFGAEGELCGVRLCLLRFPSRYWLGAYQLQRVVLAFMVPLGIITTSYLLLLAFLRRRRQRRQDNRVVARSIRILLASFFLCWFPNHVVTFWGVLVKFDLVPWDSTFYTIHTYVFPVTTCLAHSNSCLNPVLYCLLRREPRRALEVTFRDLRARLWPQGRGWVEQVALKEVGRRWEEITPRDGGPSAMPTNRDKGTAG
The experiment can be described thus: cell-based or functional assay.

In experiment [2] the target is T2, monkey GPCR142 (monkey (Macaca Nemestrina), UniProt Q8TDU9 1-374 (human entry)).
T2 chain: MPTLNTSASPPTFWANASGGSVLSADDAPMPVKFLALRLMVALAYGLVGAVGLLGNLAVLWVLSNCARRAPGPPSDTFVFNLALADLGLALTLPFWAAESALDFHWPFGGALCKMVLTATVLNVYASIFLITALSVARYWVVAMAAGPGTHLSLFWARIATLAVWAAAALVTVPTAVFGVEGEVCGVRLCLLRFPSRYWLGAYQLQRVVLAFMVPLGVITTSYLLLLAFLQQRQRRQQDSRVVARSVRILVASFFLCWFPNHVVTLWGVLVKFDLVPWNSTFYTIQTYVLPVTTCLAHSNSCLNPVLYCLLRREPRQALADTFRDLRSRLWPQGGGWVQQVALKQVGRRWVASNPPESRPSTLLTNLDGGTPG
The experiment can be described thus: cell-based or functional assay.

Experiment [3] has as its target T3, mouse GPCR142 (mouse, UniProt Q7TQP4 1-414).
T3 sequence: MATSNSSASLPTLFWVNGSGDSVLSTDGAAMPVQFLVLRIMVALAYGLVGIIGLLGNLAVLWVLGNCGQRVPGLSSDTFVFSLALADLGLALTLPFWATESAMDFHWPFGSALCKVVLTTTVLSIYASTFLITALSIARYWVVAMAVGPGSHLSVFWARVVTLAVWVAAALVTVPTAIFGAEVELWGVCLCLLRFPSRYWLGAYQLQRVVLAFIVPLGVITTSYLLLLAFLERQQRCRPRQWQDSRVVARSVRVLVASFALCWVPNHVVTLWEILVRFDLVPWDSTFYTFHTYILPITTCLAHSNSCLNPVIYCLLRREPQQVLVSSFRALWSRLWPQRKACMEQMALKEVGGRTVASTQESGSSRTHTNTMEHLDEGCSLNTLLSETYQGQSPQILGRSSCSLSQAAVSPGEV
In words: cell-based or functional assay.

Experiment [4] has as its target T4, bovine GPCR142 (bovine).
T4 chain: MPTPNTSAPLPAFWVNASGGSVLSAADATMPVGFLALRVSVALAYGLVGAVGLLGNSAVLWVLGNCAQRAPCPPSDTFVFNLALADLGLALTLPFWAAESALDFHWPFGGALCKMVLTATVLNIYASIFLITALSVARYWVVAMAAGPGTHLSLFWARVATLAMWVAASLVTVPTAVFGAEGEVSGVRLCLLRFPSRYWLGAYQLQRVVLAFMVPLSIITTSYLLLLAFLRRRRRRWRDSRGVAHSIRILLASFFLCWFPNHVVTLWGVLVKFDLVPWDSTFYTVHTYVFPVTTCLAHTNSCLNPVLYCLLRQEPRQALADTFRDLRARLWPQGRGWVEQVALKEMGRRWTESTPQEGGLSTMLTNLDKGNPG
The experiment can be described thus: cell-based or functional assay.

In experiment [5] the target is T5, human GPCR142 (human, UniProt Q8TDU9 1-374). In words: cell-based or functional assay.
T5 sequence (Q8TDU9 whole entry L329S): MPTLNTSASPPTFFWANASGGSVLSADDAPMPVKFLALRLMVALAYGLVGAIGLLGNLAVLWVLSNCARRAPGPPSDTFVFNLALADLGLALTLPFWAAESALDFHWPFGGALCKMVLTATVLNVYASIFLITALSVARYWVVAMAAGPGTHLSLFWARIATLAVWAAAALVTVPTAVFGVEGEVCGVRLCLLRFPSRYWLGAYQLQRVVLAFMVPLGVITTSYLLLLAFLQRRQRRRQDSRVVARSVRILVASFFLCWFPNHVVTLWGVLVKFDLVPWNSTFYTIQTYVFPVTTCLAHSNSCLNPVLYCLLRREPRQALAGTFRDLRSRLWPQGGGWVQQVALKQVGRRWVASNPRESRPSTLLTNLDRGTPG
The target of experiment [6] is Monkey, bovine, and porcine GPCR142. The experiment can be described thus: cell-based or functional assay.
Experiment [7] has as its target T5, human GPCR142. In words: radioligand binding assays.
The target in experiment [8] is T5, human GPCR142. The experiment can be described thus: competition binding with ^125I-relaxin3, membranes of COS-7 cells transiently expressing GPCR142. The protocol: (§1) The binding mixtures were incubated at room temperature for 1 h and then were filtered through 96-well GFC plates (Packard) and washed with ice-cold washing buffer: 50 mM Tris-HCl, pH 7.4. Fifty microliters of Microscint-40 were added to each well and the plates were counted in a Topcounter NTX (Packard).

Experiment [9] has as its target T1, porcine GPCR142. In words: radioligand competition binding, recombinant receptor in transfected COS-7 cells. As for the experimental part:
(§2) Competition binding experiments were performed to compare the ligand binding properties for recombinant monkey, mouse, bovine, and porcine GPCR142 versus that of the human GPCR142. […] The GPCR142 receptors from different species were also compared in GTPγS binding and Ca²⁺ mobilization assays.
as §1
For orientation: Loss of bound radioactivity is the signal in a displacement assay; it reports binding, not function.

Experiment [10] has as its target T2, monkey GPCR142. The experiment is described as above. As for the experimental part:
as §2, §1

Experiment [11] concerns the target T3, mouse GPCR142. Described as above. As for the experimental part:
as §2, §1

The target of experiment [12] is T4, bovine GPCR142. Described as above. The protocol:
as §2, §1

Experiment [13] concerns the target T5, human GPCR142. The experiment is described as above. The protocol: as §2, §1
The target of experiment [14] is T6, human GPCR135 (human, UniProt Q9NSD7 1-469).
T6 construct: Expressed in COS-7, CHO, SK-N-MC or HEK293 cells
T6 sequence: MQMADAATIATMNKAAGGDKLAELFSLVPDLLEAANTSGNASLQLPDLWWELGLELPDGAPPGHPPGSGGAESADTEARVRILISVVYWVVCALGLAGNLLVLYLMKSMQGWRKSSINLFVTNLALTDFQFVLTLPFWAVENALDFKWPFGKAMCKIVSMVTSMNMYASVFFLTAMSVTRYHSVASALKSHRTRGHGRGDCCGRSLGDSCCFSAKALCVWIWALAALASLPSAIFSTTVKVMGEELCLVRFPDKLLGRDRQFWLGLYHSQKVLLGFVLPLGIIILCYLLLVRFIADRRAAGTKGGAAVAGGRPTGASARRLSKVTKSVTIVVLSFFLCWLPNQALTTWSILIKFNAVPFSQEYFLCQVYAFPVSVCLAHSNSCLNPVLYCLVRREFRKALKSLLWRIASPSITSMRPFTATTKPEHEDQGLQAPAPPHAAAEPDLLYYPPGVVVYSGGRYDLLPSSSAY
The experiment can be described thus: competition binding with 100 pM ^125I-relaxin3, membranes of COS-7 cells expressing human GPCR135. The protocol:
The binding assays were performed at room temperature for an incubation time of one hour. The binding mixtures were then filtered through GFC filters pre-saturated with 0.3 polyethylenimine (Sigma) and washed with cold binding buffer. […] The results were analyzed by Prism 3.0 software.

Several values for one entry are separate records, joined by “and”; a condition that tells them apart may be missing. Equal entries are not always repeated. No end group written: not given here.

As usually defined, the Ki is a measure of affinity in units of concentration, obtained from inhibition or displacement. As a reminder, the IC50 is the concentration needed to halve the response being measured.

B1: human relaxin3 (ligand)
chain 1: RAAPYGVRLCGREFIRAVIFTCGGSRW
chain 2: DVLAGLSSSCCKWGCSKSEISSLC
modifications: disulfide (positions not given here); also: A- and B-chains linked by disulfide bridges, places not given here
notes: also called unlabeled relaxin3; human recombinant relaxin3
On to B1, for which the “EC50, GTPγS binding assay” value in [1] was 0.96 nM; in experiment [2], 1.1 nM; in experiment [3], 3.5 nM; in experiment [4], 0.45 nM; in experiment [5], 0.93 nM and 0.98 nM. Further, the results for the “EC50, Ca^2+ mobilization with Gα16” value in [5] and in experiment [6] were roughly 50 nM and 50 to 100 nM, respectively. Also, the “EC50, inhibition of forskolin-stimulated β-gal activity (cAMP reporter)” value in [5] is 0.85 nM. For the same molecule, the “Kd and Ki values” in [7] was 1 to 2 nM. The molecule further gave an inhibition constant Ki in experiment [8] of 1.2 nM. In addition, the IC50 in experiment [9] is 1.59 nM; in experiment [10], 1.34 nM; in experiment [11] it was 5.45 nM; in [12], 0.87 nM; in experiment [13] it was 1.45 nM.

B2: human recombinant INSL5 (ligand)
chain 1: KESVRLCGLEYIRTVIYICASSRW
chain 2: QDLQTLCCTDGCSMTDLSALC
modifications: ends and bridges not checked; cysteine pairing not given here
notes: Recombinant peptide from COS-7 cells co-transfected with furin; also called unlabeled INSL5; human INSL5
Consider B2, for which the binding result in experiment [14] is recorded as “no binding”.

Values taken from US20050059089A1 (priority 2003, published 2005).
